The text below walks through data of article PMC10397247.

The target of one assay is T1, 4H2949-AA.
T1 chain: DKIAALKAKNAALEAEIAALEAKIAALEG
Briefly: two-hybrid library CCmax.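 Note: natural log of median RNA to DNA barcode read ratio; higher means stronger binding.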 To be noted: mean of both orientations.

The target in the next assay is T2, 4H335-AA.
T2 chain: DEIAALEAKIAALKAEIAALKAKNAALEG
Briefly: two-hybrid library CCmax.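 Note: natural log of median RNA to DNA barcode read ratio; higher means stronger binding.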 The settings on record: mean of both orientations.

The next assay addresses T3, 4H794-AA.
T3 chain: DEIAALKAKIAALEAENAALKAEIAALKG
Briefly: two-hybrid library CCmax.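 Note: natural log of median RNA to DNA barcode read ratio; higher means stronger binding.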 To be noted: mean of both orientations.

The target in the next assay is T4, 4H881-AA.
T4 chain: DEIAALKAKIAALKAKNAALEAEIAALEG
Briefly: two-hybrid library CCmax.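 Note: natural log of median RNA to DNA barcode read ratio; higher means stronger binding.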 The settings on record: mean of both orientations.

In another assay the target is T5, 4H2617-AA.
T5 chain: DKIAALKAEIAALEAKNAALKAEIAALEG
Briefly: two-hybrid library CCmax.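 Note: natural log of median RNA to DNA barcode read ratio; higher means stronger binding.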

The target of the next assay is T6, 4H429-AA.
T6 chain: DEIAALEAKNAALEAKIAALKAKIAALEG
Briefly: two-hybrid library CCmax.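 Note: natural log of median RNA to DNA barcode read ratio; higher means stronger binding.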 The settings on record: mean of both orientations.

A further assay concerns the target T7, 4H48-AA.
T7 chain: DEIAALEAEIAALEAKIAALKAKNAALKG
Briefly: two-hybrid library CCmax. The settings on record: mean of both orientations.

The next assay has as its target T8, 4H2754-AA.
T8 chain: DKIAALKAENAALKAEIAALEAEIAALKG
Briefly: two-hybrid library CCmax. To be noted: mean of both orientations.

For another assay, the target named is T9, 4H2729-AA.
T9 chain: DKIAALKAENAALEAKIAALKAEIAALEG
Briefly: two-hybrid library CCmax. The settings on record: mean of both orientations.

A further assay addresses T10, 4H342-AA.
T10 chain: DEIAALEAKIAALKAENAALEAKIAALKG
Briefly: two-hybrid library CCmax. To be noted: mean of both orientations.

The target of a further assay is T11, 4H780-AA.
T11 chain: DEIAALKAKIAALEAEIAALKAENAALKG
Briefly: two-hybrid library CCmax. The settings on record: mean of both orientations.

A further assay concerns the target T12, 4H3844-AA.
T12 chain: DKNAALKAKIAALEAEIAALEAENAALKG
Briefly: two-hybrid library CCmax. The settings on record: mean of both orientations.

In a further assay the target is T13, 4H993-AA.
T13 chain: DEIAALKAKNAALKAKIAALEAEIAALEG
Briefly: two-hybrid library CCmax. To be noted: mean of both orientations.

Another assay deals with T14, 4H605-AA.
T14 chain: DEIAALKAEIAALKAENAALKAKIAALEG
Briefly: two-hybrid library CCmax. The settings on record: mean of both orientations.

A further assay concerns the target T15, 4H3627-AA.
T15 chain: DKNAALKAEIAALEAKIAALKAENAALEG
Briefly: two-hybrid library CCmax. The settings on record: mean of both orientations.

A further assay has as its target T16, 4H454-AA.
T16 chain: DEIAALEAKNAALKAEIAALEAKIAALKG
Briefly: two-hybrid library CCmax. The settings on record: mean of both orientations.

Another assay concerns the target T17, 4H906-AA.
T17 chain: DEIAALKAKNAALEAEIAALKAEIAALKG
Briefly: two-hybrid library CCmax. To be noted: mean of both orientations.

Another assay addresses T18, 4H3921-AA.
T18 chain: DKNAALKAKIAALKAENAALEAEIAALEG
Briefly: two-hybrid library CCmax. To be noted: mean of both orientations.

The next assay has as its target T19, 4H2883-AA.
T19 chain: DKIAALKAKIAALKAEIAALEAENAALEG
Briefly: two-hybrid library CCmax. The settings on record: mean of both orientations.

The next assay deals with T20, 4H3427-AA.
T20 chain: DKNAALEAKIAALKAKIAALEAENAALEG
Briefly: two-hybrid library CCmax. The settings on record: mean of both orientations.

The target of a further assay is T21, 4H2642-AA.
T21 chain: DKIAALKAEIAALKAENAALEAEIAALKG
Briefly: two-hybrid library CCmax. To be noted: mean of both orientations.

Another assay has as its target T22, 4H3343-AA.
T22 chain: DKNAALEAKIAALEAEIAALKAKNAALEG
Briefly: two-hybrid library CCmax. To be noted: mean of both orientations.

A further assay deals with T23, 4H317-AA.
T23 chain: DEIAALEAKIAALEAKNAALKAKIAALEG
Briefly: two-hybrid library CCmax. To be noted: mean of both orientations.

The next assay addresses T24, 4H678-AA.
T24 chain: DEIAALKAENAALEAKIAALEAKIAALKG
Briefly: two-hybrid library CCmax. The settings on record: mean of both orientations.

Another assay addresses T25, 4H717-AA.
T25 chain: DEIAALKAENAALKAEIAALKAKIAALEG
Briefly: two-hybrid library CCmax. To be noted: mean of both orientations.

For another assay, the target named is T26, 4H2944-AA.
T26 chain: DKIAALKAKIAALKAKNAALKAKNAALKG
Briefly: two-hybrid library CCmax. The settings on record: mean of both orientations.

The target of a further assay is T27, 4H3606-AA.
T27 chain: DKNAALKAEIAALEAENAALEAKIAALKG
Briefly: two-hybrid library CCmax. The settings on record: mean of both orientations.

The next assay concerns the target T28, 4H2837-AA.
T28 chain: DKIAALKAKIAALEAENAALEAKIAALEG
Briefly: two-hybrid library CCmax. The settings on record: mean of both orientations.

The target in another assay is T29, 4H3112-AA.
T29 chain: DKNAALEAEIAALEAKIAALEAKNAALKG
Briefly: two-hybrid library CCmax.

For another assay, the target named is T30, 4H566-AA.
T30 chain: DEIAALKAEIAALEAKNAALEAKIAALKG
Briefly: two-hybrid library CCmax. The settings on record: mean of both orientations.

In the next assay the target is T31, 4H3655-AA.
T31 chain: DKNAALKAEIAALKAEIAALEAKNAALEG
Briefly: two-hybrid library CCmax. To be noted: mean of both orientations.

The target of the next assay is T32, 4H780-bN.
T32 chain: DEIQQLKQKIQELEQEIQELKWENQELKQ
Briefly: two-hybrid library CCNG1.

In a further assay the target is T33, 4H953-bN.
T33 chain: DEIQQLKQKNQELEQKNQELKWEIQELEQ
Briefly: two-hybrid library CCNG1.

A further assay concerns the target T34, 4H918-bN.
T34 chain: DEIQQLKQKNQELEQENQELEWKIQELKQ
Briefly: two-hybrid library CCNG1.

The next assay concerns the target T35, 4H754-bN.
T35 chain: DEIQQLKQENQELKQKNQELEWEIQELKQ
Briefly: two-hybrid library CCNG1.

The target of another assay is T36, 4H967-bN.
T36 chain: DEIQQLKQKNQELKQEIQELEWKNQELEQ
Briefly: two-hybrid library CCNG1.

In another assay the target is T37, 4H855-bN.
T37 chain: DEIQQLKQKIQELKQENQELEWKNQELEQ
Briefly: two-hybrid library CCNG1.

For another assay, the target named is T38, 4H797-bN.
T38 chain: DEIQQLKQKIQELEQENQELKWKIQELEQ
Briefly: two-hybrid library CCNG1.

The target in the next assay is T39, 4H968-bN.
T39 chain: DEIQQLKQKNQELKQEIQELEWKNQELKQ
Briefly: two-hybrid library CCNG1.

For the next assay, the target named is T40, 4H883-bN.
T40 chain: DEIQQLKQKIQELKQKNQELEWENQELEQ
Briefly: two-hybrid library CCNG1.

A further assay concerns the target T41, 4H908-bN.
T41 chain: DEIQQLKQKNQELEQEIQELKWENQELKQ
Briefly: two-hybrid library CCNG1.

Turning to DKIAALKAEIAALEAKNAALKAEIAALEG [4H2617-AA], the interaction score with 4H2949-AA worked out at 1.53; with 4H335-AA, 0.00978; in the assay with 4H794-AA, 1.15; with 4H881-AA, 1.37; in the assay with 4H2617-AA it was 1.29; with 4H429-AA, 0.393. Also, the interaction score with 4H48-AA was -0.511; in the assay with 4H2754-AA, -1.08; with 4H2729-AA it was 2.54; with 4H342-AA, 2.32; with 4H780-AA it was -1.9; in the assay with 4H3844-AA, -1.39. For the same molecule, the interaction score with 4H993-AA is -0.54; with 4H605-AA, 0.918; in the assay with 4H3627-AA it was 0.895; in the assay with 4H454-AA, 2.09; in the assay with 4H906-AA, -0.74; in the assay with 4H3921-AA, 0.979. For the same molecule, the interaction score is -1.02 in the assay with 4H2883-AA; -0.774 in the assay with 4H3427-AA; 2.25 with 4H2642-AA; -1.31 with 4H3343-AA; 1.65 in the assay with 4H317-AA; 0.485 in the assay with 4H678-AA. Besides, the interaction score in the assay with 4H717-AA is -2.09; with 4H2944-AA, -0.31; in the assay with 4H3606-AA, 2.03; with 4H2837-AA, 2.22; with 4H3112-AA it was -1.06; in the assay with 4H566-AA it was 2.42. In the assay with 4H3655-AA, this molecule returned an interaction score of -1.76.
On to DEIQQLKQENQELKQKNQELEWEIQELKQ [4H754-bN], for which the interaction score with 4H780-bN is 0.164; in the assay with 4H953-bN, -1.42; with 4H918-bN, -1.04; in the assay with 4H754-bN, 0.447; in the assay with 4H967-bN, -0.968; in the assay with 4H855-bN it was -0.508. The interaction score was -1.55 with 4H797-bN, -0.3 with 4H968-bN, -1.38 with 4H883-bN and -1.55 with 4H908-bN.
With DEIQQLKQKIQELEQEIQELKWENQELKQ [4H780-bN], the interaction score was 1.99 with 4H780-bN; -0.748 with 4H953-bN; -0.346 with 4H918-bN; -0.732 with 4H855-bN; -0.0265 with 4H797-bN; -2.05 with 4H968-bN.
